These are literature values, as cited in patent US20260250369A1, “METHODS OF TREATING LIVER FIBROSIS, INFLAMMATION OR ASSOCIATED DISEASES USING AN ANGPTL4 ANTAGONIST” (Nanyang Technological University, priority 2022, published 2026).

For this series, the target named is T1, human cANGPTL4 (Homo sapiens, UniProt Q9BY76).
T1 sequence (Q9BY76 186-406 limits assumed): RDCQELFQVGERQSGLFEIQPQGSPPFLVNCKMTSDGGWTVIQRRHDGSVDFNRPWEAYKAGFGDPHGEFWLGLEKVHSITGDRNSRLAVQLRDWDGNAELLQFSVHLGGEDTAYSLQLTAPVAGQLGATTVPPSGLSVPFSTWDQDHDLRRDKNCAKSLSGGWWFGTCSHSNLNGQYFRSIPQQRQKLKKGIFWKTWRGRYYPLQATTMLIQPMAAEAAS

B1: mAb11F6C4: murine monoclonal antibody directed against human cANGPTL4; heavy chain SEQ ID NO 15, light chain SEQ ID NO 16 (antibody, V domains shown)
VH: QVQLQESGPGILKPSQTLSLTCSFSGFSLSTSGMGVGWIRQPSGKGLERLAHIWWDDDKYYNPSLKSQLTISKDTSRNQVFLKIISVDTADTATYYCARKDYGSSYDYRGQGTTVTVS
VL: DIELTQSPASLAVSLGQRATISCKASQSVDYDGDSYLNRFQQKPGQPPKLLIYTASNLESGIPARFSGSGSGTDFTLNIHPVEEEDAATYYCQQSNEDPWTFGGGTKLEIKR
As for B1, the “Effect on mitochondrial activities and glucose regulations of ANGPTL4” value was “does not affect”; the Epitope targeted entry is given as “target an epitope that resides within the C-terminus of human ANGPTL4”.
